Reference: patent US20240059789A1 (Janssen / Centocor, published 2024)
Changes are numbered by the printed parent chain. One block for each binder: values may come before it.

How the values were obtained:
Test in all cases: cell-based or functional assay
[1] = molecular target: T1, Human PSMA on prostate cancer cell lines (C4-2B, 22RV1) (human, UniProt Q04609 1-750)
[2] = molecular target: T1, Human PSMA on prostate cancer cell …; remark: listed apart in the source
[3] = molecular target: Human CD3 on T cells / Jurkat cells (human, UniProt P07766 23-207)
Human CD3 on T cells / Jurkat cells, sequence (P07766 23-207 limits assumed): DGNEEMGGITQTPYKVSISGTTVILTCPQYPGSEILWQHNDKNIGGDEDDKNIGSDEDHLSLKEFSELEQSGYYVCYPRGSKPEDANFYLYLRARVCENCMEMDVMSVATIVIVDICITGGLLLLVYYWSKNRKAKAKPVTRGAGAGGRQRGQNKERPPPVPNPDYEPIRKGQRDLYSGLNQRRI

T1 sequence (Q04609 whole entry): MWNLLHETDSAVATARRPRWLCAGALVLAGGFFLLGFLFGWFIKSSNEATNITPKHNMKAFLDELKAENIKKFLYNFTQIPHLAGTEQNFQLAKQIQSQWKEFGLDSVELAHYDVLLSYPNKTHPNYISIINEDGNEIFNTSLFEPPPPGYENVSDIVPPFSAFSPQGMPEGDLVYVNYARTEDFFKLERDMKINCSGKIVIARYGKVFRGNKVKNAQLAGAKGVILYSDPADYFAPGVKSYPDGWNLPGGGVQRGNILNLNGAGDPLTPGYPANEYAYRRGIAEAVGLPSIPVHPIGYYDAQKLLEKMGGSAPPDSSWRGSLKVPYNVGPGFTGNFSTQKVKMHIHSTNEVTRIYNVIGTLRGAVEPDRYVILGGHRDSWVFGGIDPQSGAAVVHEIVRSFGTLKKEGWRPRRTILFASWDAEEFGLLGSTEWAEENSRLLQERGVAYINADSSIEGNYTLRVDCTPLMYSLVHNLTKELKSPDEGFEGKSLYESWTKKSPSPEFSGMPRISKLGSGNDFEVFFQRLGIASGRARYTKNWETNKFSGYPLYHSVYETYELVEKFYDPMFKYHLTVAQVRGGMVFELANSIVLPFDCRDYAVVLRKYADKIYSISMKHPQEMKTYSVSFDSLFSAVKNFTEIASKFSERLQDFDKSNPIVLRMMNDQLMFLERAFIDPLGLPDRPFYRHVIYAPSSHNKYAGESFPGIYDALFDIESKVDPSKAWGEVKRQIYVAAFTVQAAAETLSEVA

% cytolysis at 120 hours (C4-2B, xCelligence, donor #1) at 80 pM [1]: 0%
% cytolysis at 120 hours (C4-2B, xCelligence, donor #1) at 0.4 nM [1]: 100%
% cytolysis at 120 hours (C4-2B, xCelligence, donor #1) at 2 nM [1]: 100%
% cytolysis at 120 hours (C4-2B, xCelligence, donor #1) at 10 nM [1]: 100%
% cytolysis at 120 hours (C4-2B, xCelligence, donor #1) at 50 nM [1]: 100%
% cytolysis at 120 hours (C4-2B, xCelligence, donor #2) at 80 pM [1]: 0%
% cytolysis at 120 hours (C4-2B, xCelligence, donor #2) at 0.4 nM [1]: 24%
% cytolysis at 120 hours (C4-2B, xCelligence, donor #2) at 2 nM [1]: 100%
% cytolysis at 120 hours (C4-2B, xCelligence, donor #2) at 10 nM [1]: 100%
% cytolysis at 120 hours (C4-2B, xCelligence, donor #2) at 50 nM [1]: 100%
% cytolysis at 120 hours (C4-2B, xCelligence, donor #3) at 80 pM [1]: 0%
% cytolysis at 120 hours (C4-2B, xCelligence, donor #3) at 0.4 nM [1]: 100%
% cytolysis at 120 hours (C4-2B, xCelligence, donor #3) at 2 nM [1]: 100%
% cytolysis at 120 hours (C4-2B, xCelligence, donor #3) at 10 nM [1]: 100%
% cytolysis at 120 hours (C4-2B, xCelligence, donor #3) at 50 nM [1]: 100%
B1: PS3B1356 (bispecific antibody, human IgG1, lambda, L234A L235A)
heavy 1: QVQLQQSGPGLVKPSQTLSLTCAISGDSVFNNNAAWSWIRQSPSRGLEWLGRTYYRSKWLYDYAVSVKSRITINPDTSKNQFSLQLNSVTPEDTAVYYCARGYSSSFDYWGQGTLVTVSSASTKGPSVFPLAPSSKSTSGGTAALGCLVKDYFPEPVTVSWNSGALTSGVHTFPAVLQSSGLYSLSSVVTVPSSSLGTQTYICNVNHKPSNTKVDKKVEPKSCDKTHTCPPCPAPEAAGGPSVFLFPPKPKDTLMISRTPEVTCVVVSVSHEDPEVKFNWYVDGVEVHNAKTKPREEQYNSTYRVVSVLTVLHQDWLNGKEYKCKVSNKALPAPIEKTISKAKGQPREPQVYTLPPSREEMTKNQVSLTCLVKGFYPSDIAVEWESNGQPENNYKTTPPVLDSDGSFLLYSKLTVDKSRWQQGNVFSCSVMHEALHNHYTQKSLSLSPGK
light 1: QSALTQPASVSGSPGQSITISCTGTSSNIGTYKFVSWYQQHPGKAPKVMIYEVSKRPSGVSNRFSGSKSGNTASLTISGLQAEDEADYYCVSYAGSGTLLFGGGTKLTVLGQPKAAPSVTLFPPSSEELQANKATLVCLISDFYPGAVTVAWKADSSPVKAGVETTTPSKQSNNKYAASSYLSLTPEQWKSHRSYSCQVTHEGSTVEKTVAPTECS
heavy 2: EVQLVESGGGLVQPGGSLRLSCAASGFTFSSYAMSWVRQAPGKGLEWVSAISGGIGSTYYADSVKGRFTISRDNSKNTLWLQMNSLRAEDTAVYYCAKDGVGATPYYFDYWGQGTLVTVSSASTKGPSVFPLAPSSKSTSGGTAALGCLVKDYFPEPVTVSWNSGALTSGVHTFPAVLQSSGLYSLSSVVTVPSSSLGTQTYICNVNHKPSNTKVDKKVEPKSCDKTHTCPPCPAPEAAGGPSVFLFPPKPKDTLMISRTPEVTCVVVSVSHEDPEVKFNWYVDGVEVHNAKTKPREEQYNSTYRVVSVLTVLHQDWLNGKEYKCKVSNKALPAPIEKTISKAKGQPREPQVYTLPPSREEMTKNQVSLTCLVKGFYPSDIAVEWESNGQPENNYKTTPPVLDSDGSFFLYSRLTVDKSRWQQGNVFSCSVMHEALHNHYTQKSLSLSPGK
light 2: QSVLTQPPSVSAAPGQKVTISCSGSSSNIGNNYVSWYQQLPGTAPKLLIYDNNKRPSGIPDRFSGSKSGTSATLGITGLQTGDEADYYCGTWDSSLSAYVFGTGTKVTVLGQPKAAPSVTLFPPSSEELQANKATLVCLISDFYPGAVTVAWKADSSPVKAGVETTTPSKQSNNKYAASSYLSLTPEQWKSHRSYSCQVTHEGSTVEKTVAPTECS
Cytotoxicity (C4-2B cells, 3:1 E:T ratio, 5 Day) at 1.1 nM [2]: 55%
Cytotoxicity (C4-2B cells, 3:1 E:T ratio, 5 Day) at 3.3 nM [2]: 80%
Cytotoxicity (C4-2B cells, 3:1 E:T ratio, 5 Day) at 10 nM [2]: 83%
Cytotoxicity (C4-2B cells, 3:1 E:T ratio, 5 Day) at 30 nM [2]: 88%

T cell activation EC50 [M] (CD25+ T cells, C4-2B co-culture, 72 h) [3]: 4.48e-12 M
B2: PS3B917 (bispecific antibody, human IgG1, lambda, L234A L235A)
heavy 1: QVQLQQSGPRLVRPSQTLSLTCAISGDSVFNNNAAWSWIRQSPSRGLEWLGRTYYRSKWLYDYAVSVKSRITVNPDTSRNQFTLQLNSVTPEDTALYYCARGYSSSFDYWGQGTLVTVSSASTKGPSVFPLAPSSKSTSGGTAALGCLVKDYFPEPVTVSWNSGALTSGVHTFPAVLQSSGLYSLSSVVTVPSSSLGTQTYICNVNHKPSNTKVDKKVEPKSCDKTHTCPPCPAPEAAGGPSVFLFPPKPKDTLMISRTPEVTCVVVSVSHEDPEVKFNWYVDGVEVHNAKTKPREEQYNSTYRVVSVLTVLHQDWLNGKEYKCKVSNKALPAPIEKTISKAKGQPREPQVYTLPPSREEMTKNQVSLTCLVKGFYPSDIAVEWESNGQPENNYKTTPPVLDSDGSFLLYSKLTVDKSRWQQGNVFSCSVMHEALHNHYTQKSLSLSPG
light 1: B1 light 1 with G43D, M49L, I50L, N62S, E85Q, Y89H
heavy 2: EVQLVESGGGLVKPGGSLRLSCAASGFTFSRYNMNWVRQAPGKGLEWVSSINSNSRYIYYADSVKGRFTISRDSAKNSLYLQMNSLRAEDTAVYYCAKTMGDYYYYYGMDVWGQGTTVTVSSASTKGPSVFPLAPSSKSTSGGTAALGCLVKDYFPEPVTVSWNSGALTSGVHTFPAVLQSSGLYSLSSVVTVPSSSLGTQTYICNVNHKPSNTKVDKKVEPKSCDKTHTCPPCPAPEAAGGPSVFLFPPKPKDTLMISRTPEVTCVVVSVSHEDPEVKFNWYVDGVEVHNAKTKPREEQYNSTYRVVSVLTVLHQDWLNGKEYKCKVSNKALPAPIEKTISKAKGQPREPQVYTLPPSREEMTKNQVSLTCLVKGFYPSDIAVEWESNGQPENNYKTTPPVLDSDGSFFLYSRLTVDKSRWQQGNVFSCSVMHEALHNHYTQKSLSLSPG
light 2: QSVLTQPPSVSGAPGQRVTISCTGSSFNLGAGYDVHWYQQVPGTVPKLLIYDNSNRPSGVPDRFSGSKSGTSASLAITGLQAEDETVYYCQSYDSSLSGVVFGGGTKLTVLGQPKAAPSVTLFPPSSEELQANKATLVCLISDFYPGAVTVAWKADSSPVKAGVETTTPSKQSNNKYAASSYLSLTPEQWKSHRSYSCQVTHEGSTVEKTVAPTECS

% cytolysis at 120 hours (C4-2B, xCelligence, donor #1) at 80 pM [1]: 100%
% cytolysis at 120 hours (C4-2B, xCelligence, donor #1) at 0.4 nM [1]: 100%
% cytolysis at 120 hours (C4-2B, xCelligence, donor #1) at 2 nM [1]: 100%
% cytolysis at 120 hours (C4-2B, xCelligence, donor #1) at 10 nM [1]: 100%
% cytolysis at 120 hours (C4-2B, xCelligence, donor #1) at 50 nM [1]: 100%
% cytolysis at 120 hours (C4-2B, xCelligence, donor #2) at 80 pM [1]: 100%
% cytolysis at 120 hours (C4-2B, xCelligence, donor #2) at 0.4 nM [1]: 100%
% cytolysis at 120 hours (C4-2B, xCelligence, donor #2) at 2 nM [1]: 100%
% cytolysis at 120 hours (C4-2B, xCelligence, donor #2) at 10 nM [1]: 100%
% cytolysis at 120 hours (C4-2B, xCelligence, donor #2) at 50 nM [1]: 100%
% cytolysis at 120 hours (C4-2B, xCelligence, donor #3) at 80 pM [1]: 100%
% cytolysis at 120 hours (C4-2B, xCelligence, donor #3) at 0.4 nM [1]: 100%
% cytolysis at 120 hours (C4-2B, xCelligence, donor #3) at 2 nM [1]: 100%
% cytolysis at 120 hours (C4-2B, xCelligence, donor #3) at 10 nM [1]: 100%
% cytolysis at 120 hours (C4-2B, xCelligence, donor #3) at 50 nM [1]: 100%
B3: PS3B1353 (bispecific antibody, human IgG1, lambda, L234A L235A)
heavy 1: B1 heavy 1 with G10R, K13R, I73V, K79R, S83T, V96L
light 1: B1 light 1 with G43D, M49L, I50L, N62S, E85Q, Y89H
heavy 2: B1 heavy 2
light 2: B1 light 2 with N31I, Y99V, T103G, V107L
Cytotoxicity (C4-2B cells, 3:1 E:T ratio, 5 Day) at 0.3 nM [2]: 98%
Cytotoxicity (C4-2B cells, 3:1 E:T ratio, 5 Day) at 1.1 nM [2]: 98%
Cytotoxicity (C4-2B cells, 3:1 E:T ratio, 5 Day) at 3.3 nM [2]: 97%
Cytotoxicity (C4-2B cells, 3:1 E:T ratio, 5 Day) at 10 nM [2]: 95%
Cytotoxicity (C4-2B cells, 3:1 E:T ratio, 5 Day) at 30 nM [2]: 92%
